Experimental findings from paper PMC11272584 (Nature Metabolism, 2024) are described below.

Positions count from the first letter of the chain named. Names may count otherwise.

The labels stand for the following.
T1: GIPR G449A (Homo sapiens, UniProt P48546, G449A)
T1 construct: host or cells: HEK293
T1 sequence (P48546 22-466 G449A): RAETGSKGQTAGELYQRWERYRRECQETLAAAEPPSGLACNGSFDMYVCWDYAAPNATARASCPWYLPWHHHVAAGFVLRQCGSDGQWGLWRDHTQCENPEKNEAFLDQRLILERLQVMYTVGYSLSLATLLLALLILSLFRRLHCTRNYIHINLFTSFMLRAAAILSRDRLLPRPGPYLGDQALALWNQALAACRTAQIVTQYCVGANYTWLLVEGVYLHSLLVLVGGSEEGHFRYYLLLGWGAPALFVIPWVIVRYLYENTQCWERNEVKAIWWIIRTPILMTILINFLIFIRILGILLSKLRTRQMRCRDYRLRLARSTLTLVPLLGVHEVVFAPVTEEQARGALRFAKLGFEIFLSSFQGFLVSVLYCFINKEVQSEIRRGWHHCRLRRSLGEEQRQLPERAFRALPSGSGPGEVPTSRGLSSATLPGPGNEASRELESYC

T2: GIPR V399M (Homo sapiens, UniProt P48546, V399M)
T2 construct: host or cells: HEK293
T2 sequence (P48546 22-466 V399M): T1 sequence (P48546 22-466 G449A) with V378M, A428G

T3: GIPR S415I (Homo sapiens, UniProt P48546, S415I)
T3 construct: host or cells: HEK293
T3 sequence (P48546 22-466 S415I): T1 sequence (P48546 22-466 G449A) with S394I, A428G

T4: GIPR K397N (Homo sapiens, UniProt P48546, K397N)
T4 construct: host or cells: HEK293
T4 sequence (P48546 22-466 K397N): T1 sequence (P48546 22-466 G449A) with K376N, A428G

T5: GIPR E418K (Homo sapiens, UniProt P48546, E418K)
T5 construct: host or cells: HEK293
T5 sequence (P48546 22-466 E418K): T1 sequence (P48546 22-466 G449A) with E397K, A428G

B1: G449A (protein)
chain: T1 sequence (P48546 22-466 G449A)
B2: K397N (protein)
chain: T1 sequence (P48546 22-466 G449A) with K376N, A428G
B3: S415I (protein)
chain: T1 sequence (P48546 22-466 G449A) with S394I, A428G
B4: V399M (protein)
chain: T1 sequence (P48546 22-466 G449A) with V378M, A428G
B5: E418K (protein)
chain: T1 sequence (P48546 22-466 G449A) with E397K, A428G

For the first assay, the target named is T1, GIPR G449A. Kind of assay: cAMP accumulation.
Details: not given
The assay is classed as cell-based.
As to B1, the “Efficacy at 100pmol (cAMP)” value is 0.609.

The subject of the next assay is GIPR variants (groups). As to the kind of experiment: cAMP accumulation. The settings on record: cAMP part of the in vitro group. The assay is classed as cell-based, human.
Description: HEK293 (CRL-1573, American Type Culture Collection) and β-arrestin 1/2 knockout cells, generated from HEK293A[48], were used for cAMP measurement, homologues competition binding and β-arrestin 2 recruitment. For the internalization assay, endosomal signalling and basal receptor localization experiments, HEK293A (R70507, Thermo Fisher) cells were used. Both cell lines were cultured at 5% CO2 at 37 °C in Roswell Park Memorial Institute GlutaMAX-I supplemented with 10% fetal bovine serum, 180 units ml^−1 penicillin, and 45 g ml^−1 streptomycin. For the cAMP and binding experiments, cells were transfected with the calcium phosphate precipitation method[49]. The polyethyleneimine (PEI) transfection method was used for the β-arrestin 2 recruitment assays[50], endosomal signalling and basal receptor localization assays, while the lipofectamine transfection method was used for the internalization assay.
cAMP production was measured with the DiscoverX Hithunter cAMP assay according to the manufacturer’s protocol (DiscoverX). […] On the day of the assay, the cells were washed twice with HEPES-buffered saline (HBS) and incubated with HBS and 1 mM 3-isobutyl-1-methylxanthine for 30 min at 37 °C. […] After the incubation, the assay medium was removed from the plate and the cells were washed with 30 µl PBS and treated with 40 µl enzyme donor–lysis buffer–chemiluminescent reagents and 10 µl cAMP antibodies for 60 min before 40 µl enzyme acceptor solution added. After a 3-h incubation on a shaking table in the dark, the cAMP accumulation was measured based on luminescence with a Perkin Elmer EnVision 2104 Multilabel Microplate Reader.
For cAMP accumulation, the data were fitted as a sigmoidal curve with a Hill slope of 1; for homologous competition binding, the data were fitted as a sigmoidal curve with a Hill slope of −1.
As for B2, the “In vitro groups (cAMP)” value is “WT-like_camp”.
With B1, the “In vitro groups (cAMP)” value is listed as “WT-like_camp”.
The same measure, in the same setting: as for B3, the entry is “WT-like_camp”; as for B4, “LoF_camp”; as for B5, “WT-like_camp”.

Still in this assay, the particulars now being: cAMP production compared with WT.
Consider B2, for which the percentage_camp was more than 50% cAMP.
In turn, B1 had a percentage_camp of more than 50% cAMP.
Same read-out and setting: to B3 belongs more than 50% cAMP; to B4, less than 50% cAMP.
As for B5, the percentage_camp is more than 50% cAMP.

The assay is the same for the next values; noted with them: in vitro cAMP production per GIPR variant.
On to B2, for which the “Beta, cAMP” value worked out at 0.5221.
As for B1, the “Beta, cAMP” value was determined as 0.609.
Still for that read-out and setting: as for B3, the figure is 0.6572; as for B4, 0.2386; as for B5, 0.7942.

In the next assay the target is T2, GIPR V399M. As to the kind of experiment: cAMP accumulation. The class given is cell-based.
Details: not given
Consider B4, for which the “Efficacy at 100pmol (cAMP)” value came to 0.2386.

A further assay addresses T3, GIPR S415I. As to the kind of experiment: cAMP accumulation. The assay is classed as cell-based.
Details: not given
B3: the “Efficacy at 100pmol (cAMP)” value came to 0.6572.

In the next assay the test system is GIPR variants (groups). Kind of assay: β-arrestin 2 recruitment (BRET).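 Also: BRET readout of β-arrestin 2 recruitment in transiently transfected HEK293 cells expressing WT GIPR or a GIPR variant plus GPCR kinase 2, Rluc8 donor and citrine acceptor.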 As to conditions: arr part of the in vitro group.
Description: Both cell lines were cultured at 5% CO2 at 37 °C in Roswell Park Memorial Institute GlutaMAX-I supplemented with 10% fetal bovine serum, 180 units ml^−1 penicillin, and 45 g ml^−1 streptomycin. […] The polyethyleneimine (PEI) transfection method was used for the β-arrestin 2 recruitment assays[50], endosomal signalling and basal receptor localization assays, while the lipofectamine transfection method was used for the internalization assay.
Measurement of β-arrestin 2 recruitment was performed with a BRET assay. Two days before the assay, the HEK293 cells were transiently transfected with either WT GIPR or the GIPR variants together with the donor Rluc8-Arrestin-3-Sp1, the acceptor mem-linker-citrine-SH3 and the GPCR kinase 2 to facilitate β-arrestin 2 recruitment. On assay day, the cells were washed with PBS and resuspended in PBS supplemented with 5 mmol l^−1 glucose. Subsequently, 85 µl of the cell suspension was transferred to a white 96-well plate and 10 µl of 50 µM coelenterazine-h was added.
Take B2: the “In vitro groups (β-arrestin)” value is on record as “LoF_arr”.
For the molecule B1, the “In vitro groups (β-arrestin)” value is “WT-like_arr”.
B3: the “In vitro groups (β-arrestin)” value was “WT-like_arr”.
As to B4, the “In vitro groups (β-arrestin)” value is “LoF_arr”.
In the case of B5, the “In vitro groups (β-arrestin)” value was “WT-like_arr”.

The same assay, now with this note: in vitro β-arrestin recruitment per GIPR variant.
As for B2, the “Beta, Barr” value is 0.3822.
For B1, the “Beta, Barr” value is recorded as 0.5256.
On to B3, for which the “Beta, Barr” value came out at 0.9285.
Regarding B4, the “Beta, Barr” value is given as 0.
For B5, the “Beta, Barr” value was 0.9111.

Another assay deals with T4, GIPR K397N. Kind of assay: cAMP accumulation. The class given is cell-based.
Details: not given
On to B2, for which the “Efficacy at 100pmol (cAMP)” value is 0.5221.

The target in a further assay is T5, GIPR E418K. Kind of assay: cAMP accumulation. The assay is classed as cell-based.
Details: not given
On to B5, for which the “Efficacy at 100pmol (cAMP)” value is recorded as 0.7942.
